From the supplement of paper PMC5998384

Experiments:
HeLa Kyoto [1] = assay: solubility change mitosis vs G1/S (difference of NP-40 vs SDS log2 ratios) (log2 ratio difference); higher = more soluble in mitosis
HeLa Kyoto [2] = assay: thermal stability score vs G1/S (z-score of summed log2 fold changes over temperatures); higher = more thermally stable than in G1/S
HeLa Kyoto [3] = assay: solubility in G1/S (NP-40 vs SDS abundance) (log2 ratio); higher = more soluble; settings: cell cycle stage: G1/S
HeLa Kyoto [4] = assay: melting temperature (median over replicates), in situ; higher = more thermally stable
[5] = cell cycle stage: early G1 (4.5 h after nocodazole release)
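Throughout, for melting temperature (median over replicates), in situ: HeLa Kyoto cells synchronized by double thymidine or nocodazole block, proteins quantified by TMT10plex mass spectrometry, three independent biological replicates.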
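Throughout, for solubility change mitosis vs G1/S (difference of NP-40 vs SDS log2 ratios): synchronized HeLa Kyoto cells (double thymidine block for G1/S, nocodazole release for mitosis), protein amounts in NP-40 versus SDS lysates quantified by mass spectrometry, three biological replicates.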
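Throughout, for solubility in G1/S (NP-40 vs SDS abundance): HeLa Kyoto cells arrested at G1/S by double thymidine block, proteins quantified by TMT10plex mass spectrometry in mild NP-40 versus SDS extracts, three biological replicates.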
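Throughout, for thermal stability score vs G1/S (z-score of summed log2 fold changes over temperatures): synchronized HeLa Kyoto cells, proteins quantified by TMT10plex mass spectrometry, three biological replicates, mitosis taken 0.5 h after nocodazole release, G1/S directly after double thymidine block.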

MADHVQSLAQLENLCKQLYETTDTTTRLQAEKALVEFTNSPDCLSKCQLLLERGSSSYSQLLAATCLTKLVSRTNNPLPLEQRIDIRNYVLNYLATRPKLATFVTQALIQLYARITKLGWFDCQKDDYVFRNAITDVTRFLQDSVEYCIIGVTILSQLTNEINQADTTHPLTKHRKIASSFRDSSLFDIFTLSCNLLKQASGKNLNLNDESQHGLLMQLLKLTHNCLNFDFIGTSTDESSDDLCTVQIPTSWRSAFLDSSTLQLFFDLYHSIPPSFSPLVLSCLVQIASVRRSLFNNAERAKFLSHLVDGVKRILENPQSLSDPNNYHEFCRLLARLKSNYQLGELVKVENYPEVIRLIANFTVTSLQHWEFAPNSVHYLLSLWQRLAASVPYVKATEPHMLETYTPEVTKAYITSRLESVHIILRDGLEDPLEDTGLVQQQLDQLSTIGRCEYEKTCALLVQLFDQSAQSYQELLQSASASPMDIAVQEGRLTWLVYIIGAVIGGRVSFASTDEQDAMDGELVCRVLQLMNLTDSRLAQAGNEKLELAMLSFFEQFRKIYIGDQVQKSSKLYRRLSEVLGLNDETMVLSVFIGKIITNLKYWGRCEPITSKTLQLLNDLSIGYSSVRKLVKLSAVQFMLNNHTSEHFSFLGINNQSNLTDMRCRTTFYTALGRLLMVDLGEDEDQYEQFMLPLTAAFEAVAQMFSTNSFNEQEAKRTLVGLVRDLRGIAFAFNAKTSFMMLFEWIYPSYMPILQRAIELWYHDPACTTPVLKLMAELVHNRSQRLQFDVSSPNGILLFRETSKMITMYGNRILTLGEVPKDQVYALKLKGISICFSMLKAALSGSYVNFGVFRLYGDDALDNALQTFIKLLLSIPHSDLLDYPKLSQSYYSLLEVLTQDHMNFIASLEPHVIMYILSSISEGLTALDTMVCTGCCSCLDHIVTYLFKQLSRSTKKRTTPLNQESDRFLHIMQQHPEMIQQMLSTVLNIIIFEDCRNQWSMSRPLLGLILLNEKYFSDLRNSIVNSQPPEKQQAMHLCFENLMEGIERNLLTKNRDRFTQNLSAFRREVNDSMKNSTYGVNSNDMMS [XPO7]
solubility change mitosis (log2) (HeLa Kyoto [1]): -0.207
thermal stability score (HeLa Kyoto [2]; [5]): 0.0845
thermal stability score (HeLa Kyoto [2]; cell cycle stage: mitosis): 0.043
solubility in G1/S (log2) (HeLa Kyoto [3]): -0.0594
melting temperature (HeLa Kyoto [4]; cell cycle stage: G1/S): 52.2 °C
melting temperature (HeLa Kyoto [4]; cell cycle stage: mitosis): 52.2 °C

MENEPDHENVEQSLCAKTSEEELNKSFNLEASLSKFSYIDMDKELEFKNDLIDDKEFDIPQVDTPPTLESILNETDDEDESFILEDPTLLNIDTIDSHSYDTSSVASSDSGDRTNLKRKKKLPDSFSLHGSVMRHSLLKGISAQIVSAADKVDAGLPTAIAVSSLIAVGTSHGLALIFGKDQNQALRLCLGSTSVGGQYGAISALSINNDCSRLLCGFAKGQITMWDLASGKLLRSITDAHPPGTAILHIKFTDDPTLAICNDSGGSVFELTFKRVMGVRTCESRCLFSGSKGEVCCIEPLHSKPELKDHPITQFSLLAMASLTKILVIGLKPSLKVWMTFPYGRMDPSSVPLLAWHFVAVQNYVNPMLAFCRGDVVHFLLVKRDESGAIHVTKQKHLHLYYDLINFTWINSRTVVLLDSVEKLHVIDRQTQEELETVEISEVQLVYNSSHFKSLATGGNVSQALALVGEKACYQSISSYGGQIFYLGTKSVYVMMLRSWRERVDHLLKQDCLTEALALAWSFHEGKAKAVVGLSGDASKRKAIVADRMVEILFHYADRALKKCPDQGKIQVMEQHFQDMVPVIVDYCLLLQRKDLLFSQMYDKLSENSVAKGVFLECLEPYILSDKLVGITPQVMKDLIVHFQDKKLMENVEALIVHMDITSLDIQQVVLMCWENRLYDAMIYVYNRGMNEFISPMEKLFRVIAPPLNAGKTLTDEQVVMGNKLLVYISCCLAGRAYPLGDIPEDLVPLVKNQVFEFLIRLHSAEASPEEEIYPYIRTLLHFDTREFLNVLALTFEDFKNDKQAVEYQQRIVDILLKVMVENSDFTPSQVGCLFTFLARQLAKPDNTLFVNRTLFDQVLEFLCSPDDDSRHSERQQVLLELLQAGGIVQFEESRLIRMAEKAEFYQICEFMYEREHQYDKIIDCYLRDPLREEEVFNYIHNILSIPGHSAEEKQSVWQKAMDHIEELVSLKPCKAAELVATHFSGHIETVIKKLQNQVLLFKFLRSLLDPREGIHVNQELLQISPCITEQFIELLCQFNPTQVIETLQVLECYRLEETIQITQKYQLHEVTAYLLEKKGDIHGAFLIMLERLQSKLQEVTHQGENTKEDPSLKDVEDTMVETIALCQRNSHNLNQQQREALWFPLLEAMMAPQKLSSSAIPHLHSEALKSLTMQVLNSMAAFIALPSILQRILQDPVYGKGKLGEIQGLILGMLDTFNYEQTLLETTTSLLNQDLHWSLCNLRASVTRGLNPKQDYCSICLQQYKRRQEMADEIIVFSCGHLYHSFCLQNKECTVEFEGQTRWTCYKCSSSNKVGKLSENSSEIKKGRITPSQVKMSPSYHQSKGDPTAKKGTSEPVLDPQQIQAFDQLCRLYRGSSRLALLTELSQNRSSESYRPFSGSQSAPAFNSIFQNENFQLQLIPPPVTED [VPS8]
solubility change mitosis (log2) (HeLa Kyoto [1]): -0.056
thermal stability score (HeLa Kyoto [2]; [5]): 0.78
thermal stability score (HeLa Kyoto [2]; cell cycle stage: mitosis): 1.34
solubility in G1/S (log2) (HeLa Kyoto [3]): -0.292
melting temperature (HeLa Kyoto [4]; cell cycle stage: G1/S): 52.2 °C
melting temperature (HeLa Kyoto [4]; cell cycle stage: mitosis): 50.1 °C

MAECGASGSGSSGDSLDKSITLPPDEIFRNLENAKRFAIDIGGSLTKLAYYSTVQHKVAKVRSFDHSGKDTEREHEPPYEISVQEEITARLHFIKFENTYIEACLDFIKDHLVNTETKVIQATGGGAYKFKDLIEEKLRLKVDKEDVMTCLIKGCNFVLKNIPHEAFVYQKDSDPEFRFQTNHPHIFPYLLVNIGSGVSIVKVETEDRFEWVGGSSIGGGTFWGLGALLTKTKKFDELLHLASRGQHSNVDMLVRDVYGGAHQTLGLSGNLIASSFGKSATADQEFSKEDMAKSLLHMISNDIGQLACLHARLHSLDRVYFGGFFIRGHPVTMRTITYSINFFSKGEVQALFLRHEGYLGAIGAFLKGAEQDNPNQYSWGENYAGSSGLMSASPELGPAQRARSGTFDLLEMDRLERPLVDLPLLLDPPSYVPDTVDLTDDALARKYWLTCFEEALDGVVKRAVASQPDSVDAAERAEKFRQKYWNKLQTLRQQPFAYGTLTVRSLLDTREHCLNEFNFPDPYSKVKQRENGVALRCFPGVVRSLDALGWEERQLALVKGLLAGNVFDWGAKAVSAVLESDPYFGFEEAKRKLQERPWLVDSYSEWLQRLKGPPHKCALIFADNSGIDIILGVFPFVRELLLRGTEVILACNSGPALNDVTHSESLIVAERIAGMDPVVHSALQEERLLLVQTGSSSPCLDLSRLDKGLAALVRERGADLVVIEGMGRAVHTNYHAALRCESLKLAVIKNAWLAERLGGRLFSVIFKYEVPAE [PANK4]
solubility change mitosis (log2) (HeLa Kyoto [1]): -0.0425
thermal stability score (HeLa Kyoto [2]; [5]): 0.0566
thermal stability score (HeLa Kyoto [2]; cell cycle stage: mitosis): -0.284
solubility in G1/S (log2) (HeLa Kyoto [3]): -0.125
melting temperature (HeLa Kyoto [4]; cell cycle stage: G1/S): 52 °C
melting temperature (HeLa Kyoto [4]; cell cycle stage: mitosis): 51.7 °C

MAEAGDAALSVAEWLRALHLEQYTGLFEQHGLVWATECQGLSDTRLMDMGMLLPGHRRRILAGLLRAHTSPAPAPRPTPRPVPMKRHIFRSPPVPATPPEPLPTTTEDEGLPAAPPIPPRRSCLPPTCFTTPSTAAPDPVLPPLPAKRHLAELSVPPVPPRTGPPRLLVSLPTKEEESLLPSLSSPPQPQSEEPLSTLPQGPPQPPSPPPCPPEIPPKPVRLFPEFDDSDYDEVPEEGPGAPARVMTKKEEPPPSRVPRAVRVASLLSEGEELSGDDQGDEEEDDHAYEGVPNGGWHTSSLSLSLPSTIAAPHPMDGPPGGSTPVTPVIKAGWLDKNPPQGSYIYQKRWVRLDTDHLRYFDSNKDAYSKRFISVACISHVAAIGDQKFEVITNNRTFAFRAESDVERKEWMQALQQAMAEQRARARLSSAYLLGVPGSEQPDRAGSLELRGFKNKLYVAVVGDKVQLYKNLEEYHLGIGITFIDMSVGNVKEVDRRSFDLTTPYRIFSFSADSELEKEQWLEAMQGAIAEALSTSEVAERIWAAAPNRFCADCGAPQPDWASINLCVVICKRCAGEHRGLGAGVSKVRSLKMDRKVWTETLIELFLQLGNGAGNRFWAANVPPSEALQPSSSPSTRRCHLEAKYREGKYRRYHPLFGNQEELDKALCAAVTTTDLAETQALLGCGAGINCFSGDPEAPTPLALAEQAGQTLQMEFLRNNRTTEVPRLDSMKPLEKHYSVVLPTVSHSGFLYKTASAGKLLQDRRAREEFSRRWCVLGDGVLSYFENERAVTPNGEIRASEIVCLAVPPPDTHGFEHTFEVYTEGERLYLFGLESAEQAHEWVKCIAKAFVPPLAEDLLARDFERLGRLPYKAGLSLQRAQEGWFSLSGSELRAVFPEGPCEEPLQLRKLQELSIQGDSENQVLVLVERRRTLYIQGERRLDFMGWLGAIQKAAASMGDTLSEQQLGDSDIPVIVYRCVDYITQCGLTSEGIYRKCGQTSKTQRLLESLRQDARSVHLKEGEQHVDDVSSALKRFLRDLPDGLFTRAQRLTWLEASEIEDEEEKVSRYRELLVRLPPVNRATVKALISHLYCVQCFSDTNQMNVHNLAIVFGPTLFQTDGQDYKAGRVVEDLINHYVVVFSVDEEELRKQREEITAIVKMRVAGTASGTQHAGDFICTVYLEEKKAETEQHIKVPASMTAEELTLEILDRRNVGIREKDYWTCFEVNEREEAERPLHFAEKVLPILHGLGTDSHLVVKKHQAMEAMLLYLASRVGDTKHGMMKFREDRSLLGLGLPSGGFHDRYFILNSSCLRLYKEVRSQRPWSGAPETSHRPEKEWPIKSLKVYLGVKKKLRPPTCWGFTVVHETEKHEKQQWYLCCDTQMELREWFATFLFVQHDGLVWPSEPSRVSRAVPEVRLGSVSLIPLRGSENEMRRSVAAFTADPLSLLRNV [ARAP1]
solubility change mitosis (log2) (HeLa Kyoto [1]): -0.0622
thermal stability score (HeLa Kyoto [2]; [5]): 0.748
thermal stability score (HeLa Kyoto [2]; cell cycle stage: mitosis): 0.922
solubility in G1/S (log2) (HeLa Kyoto [3]): -0.0593
melting temperature (HeLa Kyoto [4]; cell cycle stage: G1/S): 48.7 °C
melting temperature (HeLa Kyoto [4]; cell cycle stage: mitosis): 49.1 °C

MAAAAELSLLEKSLGLSKGNKYSAQGERQIPVLQTNNGPSLTGLTTIAAHLVKQANKEYLLGSTAEEKAIVQQWLEYRVTQVDGHSSKNDIHTLLKDLNSYLEDKVYLTGYNFTLADILLYYGLHRFIVDLTVQEKEKYLNVSRWFCHIQHYPGIRQHLSSVVFIKNRLYTNSH [EEF1E1]
solubility change mitosis (log2) (HeLa Kyoto [1]): 0.0967
thermal stability score (HeLa Kyoto [2]; [5]): -0.612
thermal stability score (HeLa Kyoto [2]; cell cycle stage: mitosis): -0.172
solubility in G1/S (log2) (HeLa Kyoto [3]): 0.394
melting temperature (HeLa Kyoto [4]; cell cycle stage: G1/S): 48.6 °C
melting temperature (HeLa Kyoto [4]; cell cycle stage: mitosis): 49.7 °C

MDIRPNHTIYINNMNDKIKKEELKRSLYALFSQFGHVVDIVALKTMKMRGQAFVIFKELGSSTNALRQLQGFPFYGKPMRIQYAKTDSDIISKMRGTFADKEKKKEKKKAKTVEQTATTTNKKPGQGTPNSANTQGNSTPNPQVPDYPPNYILFLNNLPEETNEMMLSMLFNQFPGFKEVRLVPGRHDIAFVEFENDGQAGAARDALQGFKITPSHAMKITYAKK [SNRPB2]
solubility change mitosis (log2) (HeLa Kyoto [1]): 0.472
thermal stability score (HeLa Kyoto [2]; [5]): -2.85
thermal stability score (HeLa Kyoto [2]; cell cycle stage: mitosis): -4.3
solubility in G1/S (log2) (HeLa Kyoto [3]): 0.221
melting temperature (HeLa Kyoto [4]; cell cycle stage: G1/S): 54.2 °C
melting temperature (HeLa Kyoto [4]; cell cycle stage: mitosis): 53.2 °C
